B1: TPR t1 (parent)
chain: GACCAAUCUGCCCUCAGAGCUCGAGAACAUCUUCGGAUGCAGAGGAGGCAGGCUUCGGUGGCGCGAUAGCGCCAACGUCCUCAACCUCCAAUGCAUCCCACCACAUGAUGAUGCCUGAAGAGCCUUGGUUUUUUG

Variants of: B1
Test: polymerase ribozyme fitness, log enrichment relative to wild type (log ratio); higher = more active; in vitro selection for triplet polymerase activity
In short: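 Frozen incubation at −7 °C formed the core of a single, triplicate in vitro selection round applied to PCR-built, transcribed mutant libraries of each subunit of a heterodimeric triplet polymerase ribozyme. Extended constructs were gel-excised, captured with streptavidin beads and amplified by RT-PCR, and input and output libraries were Illumina-sequenced with a filter of ≥10 input reads and ≥1 read per output. Fitness is the logarithm of genotype enrichment relative to wild-type enrichment, with inverse-variance-weighted replicate averaging, and the logarithm is base 2.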

In order of falling “polymerase ribozyme fitness (log ratio)” value:
1. A50C A91G C124A U133A  1.25
2. C49A C123U  1.14
3. G47C U54G G58C G69U C123G  0.703
4. C49G G120U  0.305
5. A50C A100C C104U G120C G127U  0.167
6. G48A C64U  0.0683
7. C49A G69U  0.034
8. C49G U78G U112A  -0.0739
9. G48U C53G G69U  -0.128
10. C49A C73U G120U  -0.216
11. G48C G69U U130C  -0.222
12. C49U G61U  -0.402
13. C49G G57U  -0.441
14. C49G C56U  -0.51
15. G48C C49G  -0.655
16. C49U G58C  -0.728
17. G48U G57A G58A  -0.738
18. G48A C85A  -0.739
19. C49U G71U  -0.77
20. G48C C104A C124A  -0.812
21. C49G C72U  -0.921
22. G47U G48A G63C A119G U130C  -1
23. C49U U78C  -1
24. G48U G57A  -1.01
25. G47U G58U G120U  -1.02
26. G48U C53A C62U C82U U106A A108G  -1.03
27. A50C C56A G77C C115A  -1.07
28. C49U U59G C72U  -1.12
29. G48U C72U  -1.19
30. C49G G77U  -1.25
31. C49U G110A  -1.45
32. C49U G71A  -1.46
33. G48U U59A G60U G122A C123A  -1.51
34. C49A C86G C101A A118U  -1.56
35. G48C C56G G110U  -1.56
36. C49A A66G C73U  -1.61
37. G48U A84C C115A  -1.64
38. C49A G52A G57A U78A  -1.73
39. G48A G71C U96C  -1.75
40. C49A G135U  -1.83
41. C49A C86A U129G  -1.96
42. C49G G60C  -1.97
43. C49U G71C  -2.01
44. G48C C49A  -2.13
45. C49A C101G  -2.23
46. C49U C62A  -2.25
47. C49G C62A A100U  -2.34
48. C49U C62A C115A G122A  -2.37
49. C49A A105C  -2.48
50. G48A G69U C72U U126G G128A U132A  -2.53
51. C49U A50U G51A  -2.62
52. C49G C70U U129A  -2.63
53. G48U C76G G110A G127A  -2.63
54. G47U C56G A118U G122A  -2.71
55. G48C G51C G57U  -2.77
56. G48U A50U G60A C86G  -2.89
57. G48U A91U C123U G127U  -2.98
58. C49G C56G  -2.98
59. C49G A90C  -3.22
60. G48A G61C C88A C97U C115G A119G U126A  -3.38
61. G48C A83C A90C G110A  -3.46
62. G47U C94G  -3.51
63. G48U U92G  -3.54
64. G48U C88G G113C A121C  -3.7
65. C49A C73A C89U A105U  -3.83
66. G48U A111U U125G  -4.47
67. G47U C89U G122A  -4.51
68. G48C G93A A105C  -4.64
69. G48U C56A A105G A111G  -5.01
70. G48U A50U A68G C89G U106A U116C C124U  -5.48
71. G48A G63A U116C G122A  -5.7
72. G48U C56G C72A C94A G110C  -5.78
73. C49A C72A C73U C97G C123A  -5.81
74. C49U G51U  -5.95
75. C49A A68G A90U  -6.08
76. G48U C64A C86G A111G G135A  -6.11
77. G48C G60U C86A C94U U106C G117C  -6.53
78. G48A C64A  -6.92
79. G47U C64U U67C  -7.12
80. C49U C62U G77A U78G C80G A90C G107U C115G G120C  -7.16
81. C49U G65C C104G C123A  -7.83
82. C49A C56A U59A C73G C114A G128C  -8.01
83. G48C U67C G71A A95G U106A  -8.09
84. C49G G63A U78A C99A  -8.17
